Results as given in article PMC11006224.
pKd: −log10 of the molar value.

Target: human FcRn-b2m protein construct containing an AviTag (human) (UniProt P55899)
Experiment: BLI

pKd: 7.84
Substance: rituximab IgG1, full length (from UniProt P01857 1-399) (antibody)
